{"source": "paper PMC3320567", "target": "STAT6 (pcDNA4-STAT6-mychis expression construct) (UniProt P42226)", "sequence (P42226 whole entry)": "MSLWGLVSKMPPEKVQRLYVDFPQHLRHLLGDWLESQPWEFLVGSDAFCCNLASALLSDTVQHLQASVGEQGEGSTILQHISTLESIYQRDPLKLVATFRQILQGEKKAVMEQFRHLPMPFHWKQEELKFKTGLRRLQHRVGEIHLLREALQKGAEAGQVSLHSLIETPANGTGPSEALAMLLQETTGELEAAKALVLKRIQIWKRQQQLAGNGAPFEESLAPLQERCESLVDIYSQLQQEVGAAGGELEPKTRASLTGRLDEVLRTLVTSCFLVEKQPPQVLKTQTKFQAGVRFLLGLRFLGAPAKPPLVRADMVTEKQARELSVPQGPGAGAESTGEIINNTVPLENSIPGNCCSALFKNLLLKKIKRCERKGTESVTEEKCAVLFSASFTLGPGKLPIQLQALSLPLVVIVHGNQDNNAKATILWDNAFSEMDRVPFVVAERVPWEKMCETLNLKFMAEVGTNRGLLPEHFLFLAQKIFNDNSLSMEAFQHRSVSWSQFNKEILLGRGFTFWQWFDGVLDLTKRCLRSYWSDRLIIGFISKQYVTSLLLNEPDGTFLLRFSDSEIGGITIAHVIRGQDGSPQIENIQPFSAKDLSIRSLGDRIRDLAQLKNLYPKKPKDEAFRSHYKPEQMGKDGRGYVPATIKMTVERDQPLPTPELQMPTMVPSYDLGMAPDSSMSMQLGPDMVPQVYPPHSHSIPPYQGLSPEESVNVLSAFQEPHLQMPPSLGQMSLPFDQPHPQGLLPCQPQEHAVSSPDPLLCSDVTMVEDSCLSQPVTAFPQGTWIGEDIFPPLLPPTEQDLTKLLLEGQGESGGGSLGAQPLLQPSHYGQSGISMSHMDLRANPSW", "data": [{"substance": "HA-Tip-YYFY (Y127F) (natural protein)", "values": [{"measurement": "STAT6-responsive luciferase reporter in 293T cells transfected with Lck and Tip variants, against wildtype Tip (fold reduction)", "value": 3}]}]}
